Molecular target: N-ethylmaleimide Sensitive Factor (NSF), Chinese hamster, full-length, His-tag cleaved, reassembled hexamer (Chinese hamster, UniProt P18708 1-744)
Experiment: cryo-EM structure

Sequence of N-ethylmaleimide Sensitive Factor (NSF), Chinese hamster, full-length, His-tag cleaved, reassembled hexamer (P18708 whole entry): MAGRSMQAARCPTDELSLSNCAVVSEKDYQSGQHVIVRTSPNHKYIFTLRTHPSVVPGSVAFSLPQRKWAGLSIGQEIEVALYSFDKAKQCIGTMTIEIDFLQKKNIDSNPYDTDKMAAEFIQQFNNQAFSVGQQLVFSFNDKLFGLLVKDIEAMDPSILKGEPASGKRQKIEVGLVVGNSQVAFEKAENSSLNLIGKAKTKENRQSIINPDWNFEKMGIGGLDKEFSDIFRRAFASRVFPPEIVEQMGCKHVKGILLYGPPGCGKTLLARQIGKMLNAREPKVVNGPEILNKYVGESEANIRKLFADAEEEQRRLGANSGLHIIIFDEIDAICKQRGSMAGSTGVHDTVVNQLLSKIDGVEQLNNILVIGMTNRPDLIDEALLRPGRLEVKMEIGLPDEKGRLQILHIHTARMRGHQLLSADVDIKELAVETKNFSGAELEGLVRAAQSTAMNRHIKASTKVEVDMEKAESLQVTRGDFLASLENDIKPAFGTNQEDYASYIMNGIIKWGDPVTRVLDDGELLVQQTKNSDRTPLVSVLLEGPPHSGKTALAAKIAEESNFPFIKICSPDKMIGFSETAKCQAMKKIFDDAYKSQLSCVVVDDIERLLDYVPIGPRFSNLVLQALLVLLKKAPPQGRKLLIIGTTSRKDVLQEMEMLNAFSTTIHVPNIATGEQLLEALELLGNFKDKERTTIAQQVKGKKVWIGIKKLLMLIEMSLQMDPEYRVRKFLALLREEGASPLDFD

B1: αSNAP (Soluble NSF Attachment Protein alpha), rat, wild type (natural protein)
chain: MDTSGKQAEAMALLAEAERKVKNSQSFFSGLFGGSSKIEEACEIYARAANMFKMAKNWSAAGNAFCQAAQLHLQLQSKHDAATCFVDAGNAFKKADPQEAINCLMRAIEIYTDMGRFTIAAKHHISIAEIYETELVDVEKAIAHYEQSADYYKGEESNSSANKCLLKVAGYAAQLEQYQKAIDIYEQVGTSAMDSPLLKYSAKDYFFKAALCHFCIDMLNAKLAVQKYEELFPAFSDSRECKLMKKLLEAHEEQNVDSYTESVKEYDSISRLDQWLTTMLLRIKKTIQGDEEDLR
B1: binds.

Source: PMC4320033 (Nature, 2015)
